The results in this text go back to PMC11116813, “Bipartite binding interface recruiting HP1 to chromosomal passenger complex at inner centromeres” (The Journal of Cell Biology, 2024).

Common to all, as to settings: both partners purified
The target in assay [1] is T1, full-length human HP1α WT (hHP1α), recombinant (human, UniProt P45973 1-191).
T1 construct: heterochromatin protein 1 alpha (HP1α), human, full length; Used as a dimer; The 6His-MBP tag was removed with TEV protease; also called HP1α (full-length, FL); HP1α dimer; source: E. coli BL21 DE3 (pCold), purified (Amylose Resin, TEV cleavage, Ni-NTA flow-through, HiTrap Q)
As to the kind of experiment: ITC; VP-ITC, 10 μM INCENP fragment in the cell, 100 μM HP1α dimer in the syringe, 20°C, 10 mM Tris pH 8.0, 150 mM NaCl, 1 mM DTT (Fig. 2C); one-site model. On the technique in general: In ITC the heat of successive injections is recorded.

Assay [2] deals with T1, full-length human HP1α WT (hHP1α), …. Description: ITC; VP-ITC, 10 μM INCENP peptide or fragment in the cell, 100 μM HP1α full-length or CSD dimer in the syringe, 20°C, 20 mM NaPO4 pH 7.0, 150 mM NaCl, 1 mM DTT (Fig. 2D, Fig. 3D and E); one-site model.
Assay [3] has the same target. As to the kind of experiment: pull-down; 10 μM full-length hHP1α mixed with 5 μM GST-tagged hINCENP -6His fragments in 20 mM NaPO4 pH 7.0, 150 mM NaCl, 1 mM DTT, 30 min at 4°C; Glutathione Sepharose 4B; CBB staining.
For assay [4] the target is unchanged. As to the kind of experiment: ITC; iTC200, full-length HP1α dimer in the cell (60 μM for hINCENP, 80 μM for hSgo1), 600 μM hINCENP or 800 μM hSgo1 fragment in the syringe, 25°C, 20 mM NaPO4 pH 7.0, 150 mM NaCl, 1 mM DTT (Fig. 6A, Fig. S5A); one-site model.

T1 sequence (P45973 whole entry): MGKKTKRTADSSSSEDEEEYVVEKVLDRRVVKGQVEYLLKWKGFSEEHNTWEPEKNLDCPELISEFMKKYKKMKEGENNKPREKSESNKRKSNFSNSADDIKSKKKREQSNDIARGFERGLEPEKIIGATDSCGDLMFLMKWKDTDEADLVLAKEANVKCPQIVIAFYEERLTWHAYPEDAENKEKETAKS

B1: human INCENP (121-270) WT -6His, GST removed (domain or fragment, UniProt Q9NQS7 121-270, looked up)
chain: LRRVTRAAAAAAAATMALAAPSSPTPESPTMLTKKPEDNHTQCQLVPVVEIGISERQNAEQHVTQLMSTEPLPRTLSPTPASATAPTSQGIPTSDEESTPKKSKARILESITVSSLMATPQDPKGQGVGTGRSASKLRIAQVSPGPRDSP
notes: The methods describe no removal of the 6His tag; source: E. coli BL21 Codon Plus (pGEX6P1), purified (Ni-NTA, PreScission cleavage, Glutathione Sepharose flow-through, SEC)
Regarding B1, the Kd (usually the constant that tells how readily two partners part at equilibrium) in assay [1] turned out to be 42 nM.

B2: human INCENP (160-210) -6His, GST removed (domain or fragment, UniProt Q9NQS7 160-210, looked up)
chain: HTQCQLVPVVEIGISERQNAEQHVTQLMSTEPLPRTLSPTPASATAPTSQG
notes: INCENP, human, residues 160-210; Isotope-labelled (15N or 13C/15N) in the NMR experiments and unlabelled in ITC; also called 15N-INCENP (160–210) -6His; 13C/15N-INCENP (160–210) -6His; source: E. coli BL21 Codon Plus (pGEX6P1), purified (Ni-NTA, PreScission cleavage, Glutathione Sepharose flow-through, SEC); for NMR grown in M9 medium with 15N-ammonium chloride with or without 13C-glucose; not …
Regarding B2, the binding result in assay [2] was “binds”.

B3: GST-tagged human INCENP (160-210) -6His (domain or fragment, UniProt Q9NQS7 160-210, looked up)
chain: B2 chain
notes: INCENP, human, residues 160-210; also called INCENP fragment 160–210; source: E. coli BL21 Codon Plus (pGEX6P1), purified (non-cleaved version, SEC); not shown: His6, C-terminal, kept
Take B3: the binding result in assay [3] was “binds”.

B4: human INCENP (121-210) -6His, GST removed (Fig. 2D) (domain or fragment, UniProt Q9NQS7 121-210, looked up)
chain: LRRVTRAAAAAAAATMALAAPSSPTPESPTMLTKKPEDNHTQCQLVPVVEIGISERQNAEQHVTQLMSTEPLPRTLSPTPASATAPTSQG
notes: source: E. coli BL21 Codon Plus (pGEX6P1), purified (Ni-NTA, PreScission cleavage, Glutathione Sepharose flow-through, SEC)
As to B4, the binding result in assay [2] is given as “binds”.

B5: human Sgo1 fragment (405-494), Tyr-added, GST removed (domain or fragment)
chain: YAKRALKYTDEKETEGSKPTKTPTTTPPETQQSPHLSLKDITNVSLYPVVKIRRLSLSPKKNKASPAVALPKRRCTASVNYKEPTLASKLR
notes: tyrosine residue inserted after the PreScission site, to determine the concentration; Sgo1 (shugoshin 1), human, residues 405-494, contains the canonical PVI motif; also called Sgo1 fragment containing the PVI motif (residues 405–494); Sgo1 405–494; source: E. coli BL21 Codon Plus (pGEX6P1), purified (Glutathione Sepharose, PreScission cleavage, SEC)
On to B5, for which, in assay [4], the Kd is approximately 4000 nM.
